Conditions in all cases: both partners purified
Data set [1] concerns the target T1, F-actin from chicken pectoral skeletal muscle (chicken, UniProt P68139 1-377). In words: differential scanning calorimetry; tropomyosin 15 µM and TnT 70–170 18 µM with phalloidin (36 µM) stabilized F-actin (24 µM), 100 mM NaCl, 10 mM Hepes pH 7.0, 2 mM MgCl2, 1 mM DTT; three heating scans at 1°C/min; peak of unfolding/dissociation of actin-bound tropomyosin. (Differential scanning calorimetry records heat flow against a reference as temperature is scanned.)

In data set [2] the target is T1, F-actin from chicken pectoral skeletal …. The data set is described as follows: co-sedimentation; tropomyosin 0.1–10 µM with 0.12–12 µM troponin T 70–170 (1.2× molar excess) and 5 µM F-actin, 20°C, 250 mM NaCl, 10 mM TrisHCl pH 7.5, 2 mM MgCl2, 0.5 mM DTT; pellets and supernatants by SDS-PAGE and densitometry; apparent constant (Kapp) and Hill coefficient from a fit to the Hill equation.

The target is the same in data set [3]. The data set is described as follows: light scattering temperature scan; unlabeled tropomyosin 6 µM, TnT 70–170, phalloidin (27 µM) stabilized F-actin (18 µM), 100 mM NaCl, 10 mM sodium phosphate pH 7.5, 2 mM MgCl2, 1 mM DTT; 90° scattering at 245 nm, 20–65°C at 1°C/min; temperature of 50% decrease in scattering.

B1: P2P3Shift tropomyosin (Y60A/L64A/L106A/A120L) (natural protein)
chain: MDAIKKKMQMLKLDKENALDRAEQAEADKKAAEDRSKQLEDELVSLQKKLKGTEDELDKASEAAKDAQEKLELAEKKATDAEADVASLNRRIQLVEEELDRAQERAATALQKLEEAEKALDESERGMKVIESRAQKDEEKMEIQEIQLKEAKHIAEDADRKYEEVARKLVIIESDLERAEERAELSEGKCAELEEELKTVTNNLKSLEAQAEKYSQKEDKYEEEIKVLSDKLKEAETRAEFAERSVTKLEKSIDDLEDELYAQKLKYKAISEELDHALNDMTSI
notes: striated muscle alpha-tropomyosin, rat, cDNA in pET11d, expressed with an unacetylated N-terminal Met; combines the P2Shift and P3Shift mutations; TnT 70-170 present in every actin experiment; source: E. coli BL21 (DE3), purified (ammonium sulfate fractionation, DE52 cellulose, hydroxylapatite)
For the molecule B1, in data set [1], the “DSC TM of dissociation from F-actin (TM3)” value is 44.4 °C and the “DSC ΔΔH (with minus without F-actin)” value is 14.4 kcal/mol. Moreover, the Ka in data set [2] worked out at 1.83e+06 M⁻¹.

B2: tropomyosin P3Shift C190S/L113C, unlabeled (natural protein)
chain: not shown
notes: striated muscle alpha-tropomyosin, rat, cDNA in pET11d, expressed with an unacetylated N-terminal Met; Unlabeled form used for light scattering; source: E. coli BL21 (DE3), purified (ammonium sulfate fractionation, DE52 cellulose, hydroxylapatite)
Take B2: in data set [3], the “light scattering TM (half maximal dissociation from F-actin)” value turned out to be 41.9 °C.

B3: tropomyosin P2Shift C190S/L71C, unlabeled (natural protein)
chain: not shown
notes: as for B2
On to B3, for which, in data set [3], the “light scattering TM (half maximal dissociation from F-actin)” value amounted to 40.7 °C.
